The target in experiment [1] is T1, dROS1 (Sevenless) extracellular region construct 2-3 (D. melanogaster, UniProt P13368 440-931).
T1 chain: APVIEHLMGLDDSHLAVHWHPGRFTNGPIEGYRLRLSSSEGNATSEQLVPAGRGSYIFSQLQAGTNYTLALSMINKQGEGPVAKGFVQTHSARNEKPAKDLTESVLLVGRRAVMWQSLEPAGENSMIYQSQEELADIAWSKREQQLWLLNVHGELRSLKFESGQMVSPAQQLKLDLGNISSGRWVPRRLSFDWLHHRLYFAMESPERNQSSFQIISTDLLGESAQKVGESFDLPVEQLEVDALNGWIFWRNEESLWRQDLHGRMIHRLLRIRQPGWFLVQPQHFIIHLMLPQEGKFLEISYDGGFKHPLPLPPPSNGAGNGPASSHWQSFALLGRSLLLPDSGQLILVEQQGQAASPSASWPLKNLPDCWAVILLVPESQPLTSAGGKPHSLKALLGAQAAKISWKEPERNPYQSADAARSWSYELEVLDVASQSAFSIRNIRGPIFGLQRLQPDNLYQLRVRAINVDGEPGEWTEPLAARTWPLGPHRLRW
Kind of experiment: SPR.

The target in experiment [2] is T2, dROS1 (Sevenless) extracellular region construct 1-4, his-tagged (D. melanogaster, UniProt P13368 126-1298).
T2 construct: Sevenless (dROS1), D. melanogaster, N-terminus of the ECR to the fourth FNIII domain, residues 126-1298; His tag is said to be kept for the HDX-MS experiment (immobilised on Ni resin); Factor Xa cut site after the His tag; also called dROS1 (1-4); N-terminal region of dROS1; source: Trichoplusia ni (Hi5) cells, baculovirus, purified from the medium (Ni resin, SEC); not shown: His8, N-terminal, …
T2 sequence (looked up): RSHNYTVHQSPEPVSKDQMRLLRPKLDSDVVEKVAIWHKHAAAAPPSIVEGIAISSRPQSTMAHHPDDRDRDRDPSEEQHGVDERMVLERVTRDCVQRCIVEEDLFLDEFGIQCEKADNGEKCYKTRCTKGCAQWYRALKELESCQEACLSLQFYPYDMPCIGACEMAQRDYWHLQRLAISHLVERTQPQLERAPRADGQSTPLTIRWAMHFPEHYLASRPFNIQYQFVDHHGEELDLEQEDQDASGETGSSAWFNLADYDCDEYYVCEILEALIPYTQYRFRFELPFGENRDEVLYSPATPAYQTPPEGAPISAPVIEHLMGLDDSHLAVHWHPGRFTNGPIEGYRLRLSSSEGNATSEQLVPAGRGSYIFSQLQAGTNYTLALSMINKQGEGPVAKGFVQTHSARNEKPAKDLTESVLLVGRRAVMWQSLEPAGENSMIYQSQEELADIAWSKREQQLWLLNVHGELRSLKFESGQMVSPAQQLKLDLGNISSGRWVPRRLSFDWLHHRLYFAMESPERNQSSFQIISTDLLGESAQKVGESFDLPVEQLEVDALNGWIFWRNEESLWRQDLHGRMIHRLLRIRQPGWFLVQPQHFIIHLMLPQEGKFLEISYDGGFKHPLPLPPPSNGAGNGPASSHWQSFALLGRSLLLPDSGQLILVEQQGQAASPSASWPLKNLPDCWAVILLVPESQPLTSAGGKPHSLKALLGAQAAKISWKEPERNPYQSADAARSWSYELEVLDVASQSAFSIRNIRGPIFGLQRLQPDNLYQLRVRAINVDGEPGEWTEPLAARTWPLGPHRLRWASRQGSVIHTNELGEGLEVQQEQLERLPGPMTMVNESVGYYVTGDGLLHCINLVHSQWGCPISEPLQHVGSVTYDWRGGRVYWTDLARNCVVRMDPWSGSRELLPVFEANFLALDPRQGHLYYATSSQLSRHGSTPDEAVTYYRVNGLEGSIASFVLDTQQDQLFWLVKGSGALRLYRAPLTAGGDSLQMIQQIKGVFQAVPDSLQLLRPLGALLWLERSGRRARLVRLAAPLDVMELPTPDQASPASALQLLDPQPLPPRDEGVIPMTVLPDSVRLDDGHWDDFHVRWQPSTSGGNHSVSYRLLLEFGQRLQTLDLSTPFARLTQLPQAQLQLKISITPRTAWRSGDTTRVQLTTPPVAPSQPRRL
As to the kind of experiment: SPR; BIAcore T200; dROS1 constructs covalently coupled (NHS/EDC) to a CM5 chip, BOSS ECR proteins flowed over at 10 µL/min for 180 s; 20 mM HEPES pH 7.5, 100 mM NaCl; plateau RU against BOSS concentration fitted to a single-site specific binding model. To be noted: both partners purified. In general terms: Surface plasmon resonance follows binding to a sensor surface in real time, without labels.

Experiment [3] addresses T3, dROS1 (Sevenless) full extracellular region, construct 1-9 (D. melanogaster, UniProt P13368 126-2113).
T3 construct: Sevenless (dROS1), D. melanogaster, extracellular region with FNIII domains 1 to 9, residues 126-2113; A Factor Xa cut site stands between the N-terminal octa-histidine tag and the protein; Coupled covalently to a CM5 chip in SPR; also called dROS1 1-9; full ECR of dROS1; source: Trichoplusia ni (Hi5) cells, baculovirus, purified from the medium (Ni resin, SEC)
The experiment is described as above. The note with it: both partners purified.

B1: BOSS (Bride Of Sevenless) extracellular region, His tag cleaved (domain or fragment, D. melanogaster, UniProt P22815 102-510, looked up)
chain: GTTASLVPEICLNGLQLTVNSADEGTVIRKQEEFVKILEGDVVLSVLTKDPDSALFVINRVNQANLIMADFEIGIRAISIDNASLAENLLIQEVQFLQQCTTYSMGIFVDWELYKQLESVIKDLEYNIWPIPGTRAHLFPKVAHLLHQMPWGEKIASVEIATETLEMYNEFMEAARQEHMCLMHFKSDDNVYIMFGNKLASHFKENGTLFSVPTDRTDDEFLADLPNRAFVLMENEIDLSTAVELDATPTALDEILIGKSVLPSRVLSFAGSIIDLMNWLRGSLSKHCKRGEEHDLYVLESCFNFLNFIEDWRTSEYRQAHDTAEILSLLLMRKLGTAMNFQMYQKKVLTLDKITGESRTELREIASQNFVTNVTTYYHYNRDNHTSLELKTKFGQVFNCQYSAGDNRR
notes: Bride of sevenless (BOSS), D. melanogaster, extracellular region, residues 102-510; also called BOSS ECR; BOSSWT; source: Trichoplusia ni (Hi5) cells, baculovirus, purified from the medium (Ni resin, SEC; Factor Xa cleavage, Ni flow-through, SEC); not shown: His8, N-terminal, cleaved
Turning to B1, the Kd (usually the equilibrium constant for the complex coming apart) in experiment [1] is 5 µM; in experiment [2], 3 to 5 µM; in experiment [3], 4.4 µM.

The values are drawn from article PMC11743138, “Structural basis for the interaction between the Drosophila RTK Sevenless (dROS1) and the GPCR BOSS” (Nature Communications, 2025).
